Substitutions are numbered along the chain they refer to. In names and notes the source's numbering stands. Some results are limits rather than exact numbers.

The record followed here is patent publication US20140154255A1 (AbbVie / Abbott, published 2014).

For assay [1], the target named is T1, human VEGF-A residues 27-191 of Accession #AAV38412 (human, UniProt P15692 27-191).
T1 construct: range 27-191
Nature of the assay: BIAcore SPR [continued]. How it is done:
(§1) The binding kinetics and affinity of the antibodies for VEGF (human VEGF-A residues 27-191 of Accession #AAV38412) was determined by using a BIAcore T200 surface plasmon resonance system (BIAcore, GE Healthcare, Piscataway, N.J.). Coupling running buffer was HBS-EP+ running buffer (10 mM HEPES, 150 mM sodium chloride, 3 mM EDTA 0.05% P-20, pH 7.4); assay running buffer was HBS-EP+ with 300 mM sodium chloride and 0.1 mg/mL BSA (Sigma A7906). Polyclonal goat anti-human Fc (Thermo Scientific prod#31125) was first immobilized to the biosensor surface in 10 mM sodium acetate, pH 4.5 using standard BIAcore amine coupling reagents (N-ethyl-N′-dimethylamino-propylcarbodiimide, EDC; N-hydroxysuccinimide, NHS; and ethanolamine HCl, pH 8.5). For binding kinetics assay a series of cycles were performed, each cycle consisted of 1) mAb capture, 2) Ag or buffer injection, 3) dissociation phase and 4) regeneration. Briefly, anti-VEGF antibodies were captured on parallel surfaces at a low flow rate of 10 μL/min. Capture levels were kept low to minimize avidity due to the dimeric nature of VEGF. No capture of the antibody was made on the reference surface to serve for primary referencing and as a negative control. Subsequently, VEGF or buffer only was injected to all flow cells at a flow rate of 80 μL/min for three minutes to monitor association followed by a 20-minute flow of assay rinning buffer at a flow rate of 80 μL/min to monitor dissociation. […] At the end of each cycle the surface was regenerated with 10 mM glycine, pH 1.5 at a flow rate of 60 μL/min in pulses of 60 and 10 sec. Binding data were fit to the 1:1 Langmuir model with mass transport term included using Biacore T200 Evaluation Software to determine the binding constants.
(In general: In SPR one partner is held on a chip, and binding of the other changes the refractive index at the surface.)

The target in assay [2] is T1, human VEGF-A residues 27-191 of …. Nature of the assay: BIAcore SPR, KD WT/KD mutant [continued]. How it is done: as §1
Assay [3] shares this target. Briefly: SS DLL4-VEGF DVD-Ig format; BIAcore by paragraph 262. How it is done: as §1
Assay [4] deals with Alexa647-conjugated rHuVEGF (Invitrogen Cat #PHG0143) (human, UniProt P15692-4 27-191, limits assumed, Alexa647-conjugated). Nature of the assay: flow cytometry, surface-bound antibody on 293c18 cells, 3 nM Alexa647-rHuVEGF. More on the design: reference not given here. How it is done:
Data were gathered by way of flow cytometry using a DakoCytomation CyAn ADP flow cytometer and was analyzed using Treestar's FloJo analysis program.
(A flow cytometer gives signals particle by particle.)

Assay [5] deals with T2, VEGF (R&D systems, Minneapolis, Minn.) (UniProt P15692-4 27-191, limits assumed). Nature of the assay: BIAcore SPR. A digest of the protocol: (§2)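 Antibody captured at low density to limit VEGF avidity; VEGF injected at 0–512 nM in four-fold steps, 50 μL/min for 2 min, then 25 min dissociation in HBS-P pH 7.4. Double-referenced data fit to 1:1 Langmuir model; at least three determinations.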

For assay [6], the target named is T2, VEGF (R&D systems, Minneapolis, Minn.). Nature of the assay: BIAcore SPR, WT/mutant. A digest of the protocol:
as §2

Assay [7] has the same target. Briefly: BIAcore SPR, mutant/WT. A digest of the protocol: as §2
Assay [8] has the same target. Nature of the assay: BIAcore SPR, improvement over WT. A digest of the protocol:
as §2

Assay [9] has the same target. Nature of the assay: SPR (BIAcore 2000/3000), antibody captured by anti-human Fc, VEGF as analyte, 1:1 Langmuir fit; variant corresponding to SEQ ID NO:82, the best of the variants. As for the experimental part: RL was kept low to minimize avidity due to the dimeric nature of VEGF. No capture of the antibody was made on the reference surface to serve as a negative control. Subsequently, VEGF was injected to all flow cells at a flow rate of 50 μL/min for two minutes to monitor association followed by a 25-minute flow of HBS-P running buffer (10 mM HEPES, 150 mM sodium chloride, 0.005% P-20, pH 7.4) to monitor the dissociation phase. At each cycle, VEGF, in 6 different concentrations of VEGF ranging between 0 nM and 512 nM and at four-fold increments, was injected over the surface. […] Binding data were fit to the 1:1 Langmuir model to extract binding constants from the BIAevaluate software. Double referencing was applied in each analysis to eliminate background responses from the reference surface and buffer only control. All the binding kinetics data were analyzed at least three separate determinations.

For assay [10], the target named is T1, human VEGF-A residues 27-191 of …. Briefly: BIAcore SPR.
Assay [11] shares this target. Nature of the assay: BIAcore SPR, KD WT/KD mutant.
Assay [12] shares this target. Briefly: BIAcore SPR; * detection limit. As for the experimental part: (§3) The binding kinetics and affinity of the antibodies for VEGF (human VEGF-A residues 27-191 of Accession #AAV38412) was determined by using a BIAcore T200 surface plasmon resonance system (BIAcore, GE Healthcare, Piscataway, N.J.). Coupling running buffer was HBS-EP+ running buffer (10 mM HEPES, 150 mM sodium chloride, 3 mM EDTA 0.05% P-20, pH 7.4); assay running buffer was HBS-EP+ with 300 mM sodium chloride and 0.1 mg/mL BSA (Sigma A7906). Polyclonal goat anti-human Fc (Thermo Scientific prod#31125) was first immobilized to the biosensor surface in 10 mM sodium acetate, pH 4.5 using standard BIAcore amine coupling reagents (N-ethyl-N′-dimethylamino-propylcarbodiimide, EDC; N-hydroxysuccinimide, NHS; and ethanolamine HCl, pH 8.5). For binding kinetics assay a series of cycles were performed, each cycle consisted of 1) mAb capture, 2) Ag or buffer injection, 3) dissociation phase and 4) regeneration. Briefly, anti-VEGF antibodies were captured on parallel surfaces at a low flow rate of 10 μL/min. Capture levels were kept low to minimize avidity due to the dimeric nature of VEGF. No capture of the antibody was made on the reference surface to serve for primary referencing and as a negative control. […]

The target in assay [13] is T3, unlabeled human VEGF (ELISA coat) (human, UniProt P15692-4 27-191, limits assumed). Nature of the assay: ELISA 1 hr, EC50 WT/EC50 mutant. A general note: ELISA stands for enzyme-linked immunosorbent assay.
Assay [14] addresses T3, unlabeled human VEGF (ELISA coat). Briefly: ELISA overnight, EC50 WT/EC50 mutant.
The target of assay [15] is T1, human VEGF-A residues 27-191 of …. Nature of the assay: BIAcore SPR; kd of this row is at the detection limit. As for the experimental part:
as §3

Alexa647-conjugated rHuVEGF (Invitrogen Cat #PHG0143), sequence (P15692 other isoform, or with tags, fused parts or gaps limits assumed): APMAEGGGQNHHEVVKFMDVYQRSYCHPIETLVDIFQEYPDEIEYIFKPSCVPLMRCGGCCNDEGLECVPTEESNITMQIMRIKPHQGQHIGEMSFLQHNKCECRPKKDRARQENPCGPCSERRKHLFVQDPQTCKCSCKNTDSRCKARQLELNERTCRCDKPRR
T2 sequence (P15692 other isoform, or with tags, fused parts or gaps limits assumed): as above
T1 sequence (P15692 other isoform, or with tags, fused parts or gaps limits assumed): as above
T3 sequence (P15692 other isoform, or with tags, fused parts or gaps limits assumed): as above

B1: H97 A (SS DLL4-VEGF DVD-Ig) (bispecific antibody)
VH: EVQLVESGGGLVQPGGSLRLSCAASGFTFSNFPMAWVRQAPGKGLEWVATISSSDGTTYYRDSVKGRFTISRDNAKNSLYLQMNSLRAEDTAVYYCARGYYNSPFAYWGQGTLVTVSSASTKGPEVQLVESGGGLVQPGGSLRLSCAASGYTFTNYGMNWVRQAPGKGLEWVGWINTYTGEPTYAADFKRRFTFSLDTSKSTAYLQMNSLRAEDTAVYYCAKYPAYYGSSHWYFDVWGQGTLVTVSS
VL: DIQMTQSPSSLSASVGDRVTITCRASEDIYSNLAWYQQKPGKAPKLLIYDTNNLADGVPSRFSGSGSGTDFTLTISSLQPEDFATYYCQQYNNYPPTFGQGTKLEIKRTVAAPDIQMTQSPSSLSASVGDRVTITCSASQDISNYLNWYQQKPGKAPKVLIYFTSSLHSGVPSRFSGSGSGTDFTLTISSLQPEDFATYYCQQYSTVPWTFGQGTKVEIK
notes: also called SS DLL4-VEGF DVD-Ig variant H97A
In assay [1], B1 showed a Kd of 5.03 nM, a dissociation rate constant (koff) of 0.000269 s⁻¹ and a kon of 53600 M⁻¹ s⁻¹. The affinity improvement in assay [2] was found to be 1 fold.

B2: H97 F (SS DLL4-VEGF DVD-Ig) (bispecific antibody)
VH: B1 VH with A225F
VL: B1 VL
notes: also called SS DLL4-VEGF DVD-Ig variant H97F
As to B2, in [1], the Kd turned out to be 11 nM, the off-rate constant (koff) is 8.15e-05 s⁻¹ and the kon stood at 7210 M⁻¹ s⁻¹. Besides, in assay [2], the affinity improvement came to 0.8 fold.

B3: T 28 W (bispecific antibody)
VH: B1 VH with T152W, A225H
VL: B1 VL
notes: also called SS DLL4-VEGF DVD-Ig variant T28W
For the molecule B3, the “Affinity relative to WT” value in [3] was 0.6 fold.

B4: T 30 F (bispecific antibody)
VH: B1 VH with T154F, A225H
VL: B1 VL
notes: also called SS DLL4-VEGF DVD-Ig variant T30F
Regarding B4, the “Affinity relative to WT” value in assay [3] turned out to be 0.4 fold.

B5: N31 W (SS DLL4-VEGF DVD-Ig) (bispecific antibody)
VH: B1 VH with N155W, A225H
VL: B1 VL
notes: also called SS DLL4-VEGF DVD-Ig variant N31W
On to B5, for which, in assay [1], the Kd stood at 13 nM, the koff stood at 6.92e-05 s⁻¹ and the kon came to 5500 M⁻¹ s⁻¹. Further, the affinity improvement in [2] is 0.9 fold.

B6: T30 W (SS DLL4-VEGF DVD-Ig) (bispecific antibody)
VH: B1 VH with T154W, A225H
VL: B1 VL
notes: also called SS DLL4-VEGF DVD-Ig variant T30W
In the case of B6, in assay [1], the Kd is 16 nM, the koff was found to be 0.000143 s⁻¹ and the kon came to 9120 M⁻¹ s⁻¹. In [2], this molecule had an affinity improvement of 0.8 fold.

B7: T 28 D (bispecific antibody)
VH: B1 VH with T152D, A225H
VL: B1 VL
notes: also called SS DLL4-VEGF DVD-Ig variant T28D
B7: in assay [3], the “Affinity relative to WT” value is 0.8 fold.

B8: S100a T (SS DLL4-VEGF DVD-Ig) (bispecific antibody)
VH: B1 VH with A225H, S229T
VL: B1 VL
notes: also called SS DLL4-VEGF DVD-Ig variant S100aT
In assay [1], B8 yielded a Kd of 7.6 nM, a koff of 7.33e-05 s⁻¹ and a kon of 9630 M⁻¹ s⁻¹. This molecule showed an affinity improvement in assay [2] of 1.2 fold.

B9: S100a A (SS DLL4-VEGF DVD-Ig) (bispecific antibody)
VH: B1 VH with A225H, S229A
VL: B1 VL
notes: also called SS DLL4-VEGF DVD-Ig variant S100aA
On to B9, for which, in assay [1], the Kd turned out to be 11 nM, the koff stood at 0.000124 s⁻¹ and the kon came to 11700 M⁻¹ s⁻¹. For the same molecule, the affinity improvement in [2] was 0.8 fold.

B10: VL T51A (antibody, V domains shown)
VH: EVQLVESGGGLVQPGGSLRLSCAASGYTFTNYGMNWVRQAPGKGLEWVGWINTYTGEPTYAADFKRRFTFSLDTSKSTAYLQMNSLRAEDTAVYYCAKYPHYYGSSHWYFDVWGQGTLVTVSS
VL: DIQMTQSPSSLSASVGDRVTITCSASQDISNYLNWYQQKPGKAPKVLIYFASSLHSGVPSRFSGSGSGTDFTLTISSLQPEDFATYYCQQYSTVPWTFGQGTKVEIKR
In assay [4], B10 yielded an MFI of 296.

B11: VH K64Q (antibody, V domains shown)
VH: B10 VH with K65Q
VL: DIQMTQSPSSLSASVGDRVTITCSASQDISNYLNWYQQKPGKAPKVLIYFTSSLHSGVPSRFSGSGSGTDFTLTISSLQPEDFATYYCQQYSTVPWTFGQGTKVEIK
notes: copies: 2 + 2
B11: the MFI in assay [4] was determined as 230.

B12: VH Y53F.K64Q (antibody, V domains shown)
VH: B10 VH with Y54F, K65Q
VL: B11 VL
notes: copies: 2 + 2
For B12, the MFI in assay [4] was found to be 217.

B13: bevacizumab variant corresponding to SEQ ID NO:82 (antibody, V domains shown)
VH: B10 VH with N31F, H101D, Y103D, S105G
VL: B10 VL with A51T
On to B13, for which, in assay [5], binding was characterised by a dissociation constant (Kd) of 0.0827 nM, the koff was 0.000172 s⁻¹ and the kon is 2.08e+06 M⁻¹ s⁻¹. This molecule also registered a Δkoff in assay [6] of 2 fold. Besides, in assay [7], the Δkon worked out at 11.6 fold. For the same molecule, the ΔKD in [8] was determined as 23.8 fold. For the same molecule, in [9], the Kd is 0.08 nM.

B14: VH H97E.Y98F (antibody, V domains shown)
VH: B10 VH with H101E, Y102F
VL: B11 VL
notes: copies: 2 + 2
Molecule B14 showed an MFI in assay [4] of 310.

B15: H97 F (anti-VEGF IgG) (antibody, V domains shown)
VH: B10 VH with H101F
VL: B11 VL
notes: copies: 2 + 2
In assay [10], B15 returned a kon of 59000 M⁻¹ s⁻¹. Further, the affinity improvement in assay [11] worked out at 2.5 fold. The molecule further yielded a koff in assay [12] of at most 1e-05 s⁻¹. Further, the “ELISA 1hr binding” value in assay [13] worked out at 2 fold. The molecule also had an ELISA o/n binding in [14] of 2.3 fold. In addition, the Kd in assay [15] is at most 0.17 nM.

B16: VH K64S (antibody, V domains shown)
VH: B10 VH with K65S
VL: B11 VL
notes: copies: 2 + 2
Take B16: in assay [4], the MFI is 168.

In general, Kd refers to the free concentration of one partner at which half of the binding sites on the other are occupied at equilibrium, for simple one-to-one binding. The term koff denotes the rate constant with which the complex falls apart. The term kon denotes the rate constant with which the complex forms.
